# Earlier results as cited in article PMC12302472.
# Biological target: ATOX1 (Homo sapiens) (UniProt O00244)
# Experiment: SPR
# Sequence of UniProt O00244 (O00244 whole entry): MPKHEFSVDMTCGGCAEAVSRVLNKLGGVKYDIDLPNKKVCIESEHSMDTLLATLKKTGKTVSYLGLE
substance,measurement,value
MEMO1 (from UniProt Q9Y316),Kd,210 nM
